Assay results from the supplement of paper PMC5998384.

Key:
HeLa Kyoto [1] = test: solubility in G1/S (NP-40 vs SDS abundance) (log2 ratio); higher = more soluble; details: cell cycle stage: G1/S
HeLa Kyoto [2] = test: thermal stability score vs G1/S (z-score of summed log2 fold changes over temperatures); higher = more thermally stable than in G1/S
HeLa Kyoto [3] = test: melting temperature (median over replicates), in situ; higher = more thermally stable
HeLa Kyoto [4] = test: solubility change mitosis vs G1/S (difference of NP-40 vs SDS log2 ratios) (log2 ratio difference); higher = more soluble in mitosis
[5] = cell cycle stage: early G1 (4.5 h after nocodazole release)
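Throughout, for melting temperature (median over replicates), in situ: HeLa Kyoto cells synchronized by double thymidine or nocodazole block, proteins quantified by TMT10plex mass spectrometry, three independent biological replicates.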
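Throughout, for solubility change mitosis vs G1/S (difference of NP-40 vs SDS log2 ratios): synchronized HeLa Kyoto cells (double thymidine block for G1/S, nocodazole release for mitosis), protein amounts in NP-40 versus SDS lysates quantified by mass spectrometry, three biological replicates.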
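Throughout, for solubility in G1/S (NP-40 vs SDS abundance): HeLa Kyoto cells arrested at G1/S by double thymidine block, proteins quantified by TMT10plex mass spectrometry in mild NP-40 versus SDS extracts, three biological replicates.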
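Throughout, for thermal stability score vs G1/S (z-score of summed log2 fold changes over temperatures): synchronized HeLa Kyoto cells, proteins quantified by TMT10plex mass spectrometry, three biological replicates, mitosis taken 0.5 h after nocodazole release, G1/S directly after double thymidine block.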

Row | Sequence | solubility in G1/S (log2) (HeLa Kyoto [1]) | thermal stability score (HeLa Kyoto [2]; [5]) | thermal stability score (HeLa Kyoto [2]; cell cycle stage: mitosis) | melting temperature (HeLa Kyoto [3]; cell cycle stage: G1/S) | melting temperature (HeLa Kyoto [3]; cell cycle stage: mitosis) | solubility change mitosis (log2) (HeLa Kyoto [4])
1 | MTSKQAMSSNEQERLLCYNGEVLVFQLSKGNFADKEPTKTPILHVRRMVFDRGTKVFVQKSTGFFTIKEENSHLKIMCCNCVSDFRTGINLPYIVIEKNKKNNVFEYFLLILHSTNKFEMRLSFKLGYEMKDGLRVLNGPLILWRHVKAFFFISSQTGKVVSVSGNFSSIQWAGEIENLGMVLLGLKECCLSEEECTQEPSKSDYAIWNTKFCVYSLESQEVLSDIYIIPPAYSSVVTYVHICATEIIKNQLRISLIALTRKNQLISFQNGTPKNVCQLPFGDPCAVQLMDSGGGNLFFVVSFISNNACAVWKESFQVAAKWEKLSLVLIDDFIGSGTEQVLLLFKDSLNSDCLTSFKITDLGKINYSSEPSDCNEDDLFEDKQENRYLVVPPLETGLKVCFSSFRELRQHLLLKEKIISKSYKALINLVQGKDDNTSSAEEKECLVPLCGEEENSVHILDEKLSDNFQDSEQLVEKIWYRVIDDSLVVGVKTTSSLKLSLNDVTLSLLMDQAHDSRFRLLKCQNRVIKLSTNPFPAPYLMPCEIGLEAKRVTLTPDSKKEESFVCEHPSKKECVQIITAVTSLSPLLTFSKFCCTVLLQIMERESGNCPKDRYVVCGRVFLSLEDLSTGKYLLTFPKKKPIEHMEDLFALLAAFHKSCFQITSPGYALNSMKVWLLEHMKCEIIKEFPEVYFCERPGSFYGTLFTWKQRTPFEGILIIYSRNQTVMFQCLHNLIRILPINCFLKNLKSGSENFLIDNMAFTLEKELVTLSSLSSAIAKHESNFMQRCEVSKGKSSVVAAALSDRRENIHPYRKELQREKKKMLQTNLKVSGALYREITLKVAEVQLKSDFAAQKLSNL [FANCB] | -0.208 | 1.37 | 0.274 | 53.7 °C | 53.8 °C | -0.0928
2 | MTSLYGRHAEKTTDMPKPSAPKVHVQRSVSRDTIAIHFSASGEEEEEEEEEFREYFEEGLDDQSIVTGLEAKEDLYLEPQVGHDPAGPAASPVLADGLSVSQAPAILPVSKNTVKLLESPVPAAQVLSTVPLAVSPGSSSSGPLASSPSVSSLSEQKTSSSSPLSSPSKSPILSSSASTSTLSSAKPFMSLVKSLSTEVEPKESPHPARHRHLMKTLVKSLSTDTSRQESDTVSYKPPDSKLNLHLFKQFTQPRNTGGDSKTAPSSPLTSPSDTRSFFKVPEMEAKIEDTKRRLSEVIYEPFQLLSKIIGEESGSHRPKALSSSASELSNLSSLNGHLESNNNYSIKEEECDSEGDGYGSDSNIPRSDHPKSTGEPTREIELKSSQGSSLKDLGLKTSSLVLEKCSLSALVSKEDEEFCELYTEDFDLETEGESKVDKLSDIPLKPEVLAEDGVVLDSEDEVDSAVQHPELPVKTLGFFIMCVYVYLILPLPHYVSGLFLGIGLGFMTAVCVIWFFTPPSAHKYHKLHKNLRHWNTRSLDIKEPEILKGWMNEIYNYDPETYHATLTHSVFVRLEGGTLRLSKPNKNISRRASYNEPKPEVTYISQKIYDLSDSKIYLVPKTLARKRIWNKKYPICIELGQQDDFMSKAQTDKETSEEKPPAEGSEDPKKPPRPQEGTRSSQRDQILYLFGRTGREKEEWFRRFILASKLKSEIKKSSGVSGGKPGLLPAHSRHNSPSGHLTHSRSSSKGSVEEIMSQPKQKELAGSVRQKMLLDYSVYMGRCVPQESRSPQRSPLQSAESSPTAGKKLPEVPPSEEEEQEAWVNALLGRIFWDFLGEKYWSDLVSKKIQMKLSKIKLPYFMNELTLTELDMGVAVPKILQAFKPYVDHQGLWIDLEMSYNGSFLMTLETKMNLTKLGKEPLVEALKVGEIGKEGCRPRAFCLADSDEESSSAGSSEEDDAPEPSGGDKQLLPGAEGYVGGHRTSKIMRFVDKITKSKYFQKATETEFIKKKIEEVSNTPLLLTVEVQECRGTLAVNIPPPPTDRVWYGFRKPPHVELKARPKLGEREVTLVHVTDWIEKKLEQEFQKVFVMPNMDDVYITIMHSAMDPRSTSCLLKDPPVEAADQP [TEX2] | -0.062 | -0.212 | -0.23 | 50.1 °C | 50.4 °C | -0.118
3 | MTTKRSLFVRLVPCRCLRGEEETVTTLDYSHCSLEQVPKEIFTFEKTLEELYLDANQIEELPKQLFNCQSLHKLSLPDNDLTTLPASIANLINLRELDVSKNGIQEFPENIKNCKVLTIVEASVNPISKLPDGFSQLLNLTQLYLNDAFLEFLPANFGRLTKLQILELRENQLKMLPKTMNRLTQLERLDLGSNEFTEVPEVLEQLSGLKEFWMDANRLTFIPGFIGSLKQLTYLDVSKNNIEMVEEGISTCENLQDLLLSSNSLQQLPETIGSLKNITTLKIDENQLMYLPDSIGGLISVEELDCSFNEVEALPSSIGQLTNLRTFAADHNYLQQLPPEIGSWKNITVLFLHSNKLETLPEEMGDMQKLKVINLSDNRLKNLPFSFTKLQQLTAMWLSDNQSKPLIPLQKETDSETQKMVLTNYMFPQQPRTEDVMFISDNESFNPSLWEEQRKQRAQVAFECDEDKDEREAPPREGNLKRYPTPYPDELKNMVKTVQTIVHRLKDEETNEDSGRDLKPHEDQQDINKDVGVKTSESTTTVKSKVDEREKYMIGNSVQKISEPEAEISPGSLPVTANMKASENLKHIVNHDDVFEESEELSSDEEMKMAEMRPPLIETSINQPKVVALSNNKKDDTKETDSLSDEVTHNSNQNNSNCSSPSRMSDSVSLNTDSSQDTSLCSPVKQTHIDINSKIRQEDENFNSLLQNGDILNSSTEEKFKAHDKKDFNLPEYDLNVEERLVLIEKSVDSTATADDTHKLDHINMNLNKLITNDTFQPEIMERSKTQDIVLGTSFLSINSKEETEHLENGNKYPNLESVNKVNGHSEETSQSPNRTEPHDSDCSVDLGISKSTEDLSPQKSGPVGSVVKSHSITNMEIGGLKIYDILSDNGPQQPSTTVKITSAVDGKNIVRSKSATLLYDQPLQVFTGSSSSSDLISGTKAIFKFDSNHNPEEPNIIRGPTSGPQSAPQIYGPPQYNIQYSSSAAVKDTLWHSKQNPQIDHASFPPQLLPRSESTENQSYAKHSANMNFSNHNNVRANTAYHLHQRLGPARHGEMWAISPNDRLIPAVTRSTIQRQSSVSSTASVNLGDPGSTRRAQIPEGDYLSYREFHSAGRTPPMMPGSQRPLSARTYSIDGPNASRPQSARPSINEIPERTMSVSDFNYSRTSPSKRPNARVGSEHSLLDPPGKSKVPRDWREQVLRHIEAKKLEKKHPQTSSSGDPCQDGIFISGQQNYSSATLSHKDVPPDSLMKMPLSNGQMGQPLRPQANYSQIHHPPQASVARHPSREQLIDYLMLKVAHQPPYTQPHCSPRQGHELAKQEIRVRVEKDPELGFSISGGVGGRGNPFRPDDDGIFVTRVQPEGPASKLLQPGDKIIQANGYSFINIEHGQAVSLLKTFQNTVELIIVREVSS [ERBB2IP] | -0.0185 | 0.246 | 1.12 | 48.8 °C | 49 °C | -0.0785
4 | MTTQQIDLQGPGPWGFRLVGGKDFEQPLAISRVTPGSKAALANLCIGDVITAIDGENTSNMTHLEAQNRIKGCTDNLTLTVARSEHKVWSPLVTEEGKRHPYKMNLASEPQEVLHIGSAHNRSAMPFTASPASSTTARVITNQYNNPAGLYSSENISNFNNALESKTAASGVEANSRPLDHAQPPSSLVIDKESEVYKMLQEKQELNEPPKQSTSFLVLQEILESEEKGDPNKPSGFRSVKAPVTKVAASIGNAQKLPMCDKCGTGIVGVFVKLRDRHRHPECYVCTDCGTNLKQKGHFFVEDQIYCEKHARERVTPPEGYEVVTVFPK [PDLIM1] | 0.455 | -1.51 | -0.369 | 55.6 °C | 56 °C | 0.147
5 | MTVFFKTLRNHWKKTTAGLCLLTWGGHWLYGKHCDNLLRRAACQEAQVFGNQLIPPNAQVKKATVFLNPAACKGKARTLFEKNAAPILHLSGMDVTIVKTDYEGQAKKLLELMENTDVIIVAGGDGTLQEVVTGVLRRTDEATFSKIPIGFIPLGETSSLSHTLFAESGNKVQHITDATLAIVKGETVPLDVLQIKGEKEQPVFAMTGLRWGSFRDAGVKVSKYWYLGPLKIKAAHFFSTLKEWPQTHQASISYTGPTERPPNEPEETPVQRPSLYRRILRRLASYWAQPQDALSQEVSPEVWKDVQLSTIELSITTRNNQLDPTSKEDFLNICIEPDTISKGDFITIGSRKVRNPKLHVEGTECLQASQCTLLIPEGAGGSFSIDSEEYEAMPVEVKLLPRKLQFFCDPRKREQMLTSPTQ [AGK] | 0.0337 | -0.493 | -1.02 | 53.6 °C | 53.6 °C | -0.034
6 | MVAPGLVLGLVLPLILWADRSAGIGFRFASYINNDMVLQKEPAGAVIWGFGTPGATVTVTLRQGQETIMKKVTSVKAHSDTWMVVLDPMKPGGPFEVMAQQTLEKINFTLRVHDVLFGDVWLCSGQSNMQMTVLQIFNATRELSNTAAYQSVRILSVSPIQAEQELEDLVAVDLQWSKPTSENLGHGYFKYMSAVCWLFGRHLYDTLQYPIGLIASSWGGTPIEAWSSGRSLKACGVPKQGSIPYDSVTGPSKHSVLWNAMIHPLCNMTLKGVVWYQGESNINYNTDLYNCTFPALIEDWRETFHRGSQGQTERFFPFGLVQLSSDLSKKSSDDGFPQIRWHQTADFGYVPNPKMPNTFMAVAMDLCDRDSPFGSIHPRDKQTVAYRLHLGARALAYGEKNLTFEGPLPEKIELLAHKGLLNLTYYQQIQVQKKDNKIFEISCCSDHRCKWLPASMNTVSTQSLTLAIDSCHGTVVALRYAWTTWPCEYKQCPLYHPSSALPAPPFIAFITDQGPGHQSNVAK [SIAE] | 0.569 | 1.01 | -0.521 | 58 °C | 57.9 °C | -0.103
7 | MVDYSVWDHIEVSDDEDETHPNIDTASLFRWRHQARVERMEQFQKEKEELDRGCRECKRKVAECQRKLKELEVAEGGKAELERLQAEAQQLRKEERSWEQKLEEMRKKEKSMPWNVDTLSKDGFSKSMVNTKPEKTEEDSEEVREQKHKTFVEKYEKQIKHFGMLRRWDDSQKYLSDNVHLVCEETANYLVIWCIDLEVEEKCALMEQVAHQTIVMQFILELAKSLKVDPRACFRQFFTKIKTADRQYMEGFNDELEAFKERVRGRAKLRIEKAMKEYEEEERKKRLGPGGLDPVEVYESLPEELQKCFDVKDVQMLQDAISKMDPTDAKYHMQRCIDSGLWVPNSKASEAKEGEEAGPGDPLLEAVPKTGDEKDVSV [CDC37] | 0.24 | 0.438 | -0.732 | 52.1 °C | 52.6 °C | 0.0658
8 | MVEADRPGKLFIGGLNTETNEKALEAVFGKYGRIVEVLLMKDRETNKSRGFAFVTFESPADAKDAARDMNGKSLDGKAIKVEQATKPSFESGRRGPPPPPRSRGPPRGLRGGRGGSGGTRGPPSRGGHMDDGGYSMNFNMSSSRGPLPVKRGPPPRSGGPPPKRSAPSGPVRSSSGMGGRAPVSRGRDSYGGPPRREPLPSRRDVYLSPRDDGYSTKDSYSSRDYPSSRDTRDYAPPPRDYTYRDYGHSSSRDDYPSRGYSDRDGYGRDRDYSDHPSGGSYRDSYESYGNSRSAPPTRGPPPSYGGSSRYDDYSSSRDGYGGSRDSYSSSRSDLYSSGRDRVGRQERGLPPSMERGYPPPRDSYSSSSRGAPRGGGRGGSRSDRGGGRSRY [RBMX] | -0.567 | -0.25 | 7.17 | 47.5 °C | 50.5 °C | 0.777
9 | MVELMFPLLLLLLPFLLYMAAPQIRKMLSSGVCTSTVQLPGKVVVVTGANTGIGKETAKELAQRGARVYLACRDVEKGELVAKEIQTTTGNQQVLVRKLDLSDTKSIRAFAKGFLAEEKHLHVLINNAGVMMCPYSKTADGFEMHIGVNHLGHFLLTHLLLEKLKESAPSRIVNVSSLAHHLGRIHFHNLQGEKFYNAGLAYCHSKLANILFTQELARRLKGSGVTTYSVHPGTVQSELVRHSSFMRWMWWLFSFFIKTPQQGAQTSLHCALTEGLEILSGNHFSDCHVAWVSAQARNETIARRLWDVSCDLLGLPID [RDH11] | -0.0695 | -0.184 | 0.26 | 49.5 °C | 50.2 °C | -0.137
